Where no end group is shown, it is not given here. eCPX = enhanced circularly permuted OmpX display scaffold; linker = not defined here
T1: Mcl-1 (biotinylated pro-survival Bcl-2 family protein) (UniProt Q07820 171-327, biotinylated (co-expressed E. coli biotin ligase BirA))
T1 chain: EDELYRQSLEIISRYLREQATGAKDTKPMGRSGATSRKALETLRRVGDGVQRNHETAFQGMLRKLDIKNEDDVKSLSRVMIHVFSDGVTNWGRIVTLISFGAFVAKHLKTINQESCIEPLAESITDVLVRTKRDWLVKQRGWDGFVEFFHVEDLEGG

T2: A1 (biotinylated pro-survival Bcl-2 family protein) (UniProt Q16548 1-152, biotinylated (co-expressed E. coli biotin ligase BirA))
T2 chain: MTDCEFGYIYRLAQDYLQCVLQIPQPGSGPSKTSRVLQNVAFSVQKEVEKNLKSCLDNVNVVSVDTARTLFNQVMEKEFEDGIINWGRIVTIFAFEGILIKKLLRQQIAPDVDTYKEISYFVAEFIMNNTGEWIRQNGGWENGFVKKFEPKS

B1: Bim BH3 14-mer variant M2-2 displayed on eCPX (peptide)
peptide: WVAQLLRRIGDEVN-{linker-eCPX}
modifications: reading uncertain; also: printed as Trp-Val-Ala-Gln-Leu-Leu-Arg-Arg-Ile-Gly-Asp-Glu-Val-Asn
B2: Bim BH3 14-mer E151L displayed on eCPX (peptide)
peptide: WIAQLLRRIGDEFN
B3: Bim BH3 14-mer E151T displayed on eCPX (peptide)
peptide: WIAQTLRRIGDEFN
B4: Bim BH3 14-mer variant X2-8 displayed on eCPX (peptide)
peptide: WLAQLLRRYGDEFN
modifications: also: displayed as fusion to eCPX scaffold (letters not given here)

What was measured:
[1] = molecular target: Bcl-2 (biotinylated pro-survival Bcl-2 family protein) (UniProt P10415 1-217, biotinylated (co-expressed E. coli biotin ligase BirA)); assay: cell surface display FACS titration; apparent Kd
Sequence of Bcl-2 (biotinylated pro-survival Bcl-2 family protein) (P10415 1-217): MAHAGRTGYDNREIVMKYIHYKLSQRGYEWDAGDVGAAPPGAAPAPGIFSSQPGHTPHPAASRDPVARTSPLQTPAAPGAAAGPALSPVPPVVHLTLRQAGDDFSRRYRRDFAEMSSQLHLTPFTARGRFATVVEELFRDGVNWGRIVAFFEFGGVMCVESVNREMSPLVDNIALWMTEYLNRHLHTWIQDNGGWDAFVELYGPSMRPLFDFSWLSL

[2] = molecular target: T1, Mcl-1 (biotinylated pro-survival Bcl-2 …); assay: cell surface display FACS titration; apparent Kd
[3] = molecular target: T2, A1 (biotinylated pro-survival Bcl-2 …); assay: flow cytometry, bacterial surface display (eCPX); apparent Kd; FIG. 7AH

| Binder | Kd [2] | also measured |
| --- | --- | --- |
| B1 | – | Kd [1]: > 10000 nM |
| B2 | 17.8 nM | – |
| B3 | 33.2 nM | – |
| B4 | – | Kd [3]: 5.8 nM |

Source: patent US20150045310A1 (published 2015)
